These results are taken from PMC7319586.

For one data set, the target named is T1, Rv1044 (Mycobacterium tuberculosis (H37Rv), UniProt P96357 1-207).
T1 sequence: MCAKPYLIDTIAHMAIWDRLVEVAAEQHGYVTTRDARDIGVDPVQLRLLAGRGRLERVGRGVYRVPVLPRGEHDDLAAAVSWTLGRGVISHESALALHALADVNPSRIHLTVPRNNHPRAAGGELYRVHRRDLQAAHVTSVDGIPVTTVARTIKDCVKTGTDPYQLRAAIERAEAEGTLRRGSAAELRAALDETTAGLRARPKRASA
Put plainly: EMSA. To be noted: protein: recombinant; tags: His6-SUMO removed by SENP; untagged; chain copies: 2; label: 5' 6-FAM on strand 2; blunt. (In general: In EMSA bound probe runs differently from free probe, usually more slowly.)

For data set [1], the target named is T2, Rv2827c (Mycobacterium tuberculosis (H37Rv), UniProt P71625 1-295).
T2 sequence: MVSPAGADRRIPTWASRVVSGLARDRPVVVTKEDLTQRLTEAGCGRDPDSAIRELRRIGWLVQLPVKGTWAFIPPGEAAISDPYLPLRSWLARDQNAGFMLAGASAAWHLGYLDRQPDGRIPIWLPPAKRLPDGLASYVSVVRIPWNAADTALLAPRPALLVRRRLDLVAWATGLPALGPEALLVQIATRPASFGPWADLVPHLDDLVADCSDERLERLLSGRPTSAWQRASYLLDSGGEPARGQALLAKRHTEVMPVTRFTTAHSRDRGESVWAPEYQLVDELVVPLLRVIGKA
The data set is described as follows: EMSA; weakly negative co-operativity. To be noted: protein: recombinant; tags: His6-SUMO removed by SENP; untagged; label: 5' 6-FAM on strand 2; blunt.

For data set [2], the target named is T2, Rv2827c. The data set is described as follows: EMSA; two binding events; not co-operative. To be noted: protein: recombinant; tags: His6-SUMO removed by SENP; untagged; label: 5' 6-FAM on strand 2; blunt.
Data set [3] concerns the target T2, Rv2827c. The data set is described as follows: EMSA. To be noted: protein: recombinant; tags: His6-SUMO removed by SENP; untagged; label: 5' 6-FAM on strand 2; blunt.

B1: Prv1044 -61 to -131 WT (TRB1102) (dsDNA)
DNA 1: GTATCTGCGACAAGGGCAGCGTCGATGCCTCGACATGCAGAGTCGGTGTTCGCTTCACGCGAACTAGGCGCAAGCTTTTGTCAGTGCGCA
DNA 2: TGCGCACTGACAAAAGCTTGCGCCTAGTTCGCGTGAAGCGAACACCGACTCTGCATGTCGAGGCATCGACGCTGCCCTTGTCGCAGATAC
B1: in the data set with Rv1044, the binding result is given as “no binding”.

B2: Prv1044 -1 to -71 WT (TRB1086) (dsDNA)
DNA 1: AACTAGGCGCGCCTAGCCTGGACGAGTCCCCGGGCCGACATTCGCCCGAGGCCTTGGCCTCCATCACCTAAAAGCTTTTGTCAGTGCGCA
DNA 2: TGCGCACTGACAAAAGCTTTTAGGTGATGGAGGCCAAGGCCTCGGGCGAATGTCGGCCCGGGGACTCGTCCAGGCTAGGCGCGCCTAGTT
As for B2, the binding result in the data set with Rv1044 is “no binding”.

B3: Prv2827c -61 to -131 WT (IR1-IR2, TRB1106) (dsDNA)
DNA 1: CAGGGCACTTGAGTTTGGAACGGGTTTCGTACTGTCACTGACCGAAGCCCGTTCCTAAATCAAGTGATTTCAAGCTTTTGTCAGTGCGCA
DNA 2: TGCGCACTGACAAAAGCTTGAAATCACTTGATTTAGGAACGGGCTTCGGTCAGTGACAGTACGAAACCCGTTCCAAACTCAAGTGCCCTG
For the molecule B3, the binding result in the data set with Rv1044 was “no binding”; with Rv2827c [1], “binds”.

B4: Prv2827c -1 to -71 WT (IR3-IR4, TRB1104) (dsDNA)
DNA 1: CAAGTGATTTCTTGAGTTTGAACATTGTTGCGTACAGATATAGTATAGTTTCCGGTGTGAATTCAAGTTCGAAGCTTTTGTCAGTGCGCA
DNA 2: TGCGCACTGACAAAAGCTTCGAACTTGAATTCACACCGGAAACTATACTATATCTGTACGCAACAATGTTCAAACTCAAGAAATCACTTG
As to B4, the figures for the binding result with Rv1044 and with Rv2827c [2] were “no binding” and “binds”, respectively.

B5: PabiEi -1 to -71 WT (IR1-IR2, TRB1061) (dsDNA)
DNA 1: AAAAGAAAATGTTGCTTTTATACCACAAATATTGTAAAATTGTAGTGTAAAAGCAACAAGTGGGGGGCCGTAAGCTTTTGTCAGTGCGCA
DNA 2: TGCGCACTGACAAAAGCTTACGGCCCCCCACTTGTTGCTTTTACACTACAATTTTACAATATTTGTGGTATAAAAGCAACATTTTCTTTT
On to B5, for which the binding result with Rv2827c [3] was “no binding”.
